± gives the uncertainty stated by the source.
Assay: self-splicing fitness, log relative to wild type (ln ratio); higher = more splicing; Tetrahymena group I intron in knt gene, E. coli kanamycin selection, DiMSum; sequences stand for … in CUCUCU…GGAGGGAAAAGUUAUCAGGCAUGCACCUGGUAGCUAGUCUUUAAACCAAUAGAUUGCAUCGGUUUAAAAGGCAAGACCGUCAAAUUGCGGGAAAGGGGUCAACAGCCGUUCAGUACCAAGUCUCAGGGGAAACUUUGAGAUGGCCUUGCAAAGGGUAUGGUAAUAAGCUGACGGACAUGGUCCUAACCACGCAGCCAAGUCCUAAGUCAACAGAUCUUCUGUUGAUAUGGAUGCAGUUCACAGACUAAAUGUCGGUCGGGGAAGAUGUAUUCUUCUCAUAAGAUAUAGUCGGACCUCUCCUUAAUGGGAGCUAGCGGAUGAAGUGAUGCAACACUGGAGCCGCUGGGAACUAAUUUGUAUGCGAAAGUAUAUUGAUUAGUUUUGGAGUACUCGUGGUCG
Summary of the method: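 Fitness was computed with DiMSum as the error-weighted combination of replicate fold changes, kanamycin versus none, each normalised to wild type. The library randomised all eight intron nucleotides of the P1ex region, with the intron placed in the knt kanamycin-resistance gene on pET-22b(+) in E. coli BL21(DE3). Six replicate transformations were grown overnight at 37°C or 30°C on LB agar with or without 25 μg/mL kanamycin, plus 100 μg/mL carbenicillin, 50 μM IPTG and 0.2% rhamnose. Pooled colonies were amplicon-sequenced on an Illumina HiSeq 2500.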

Sequence | self-splicing fitness (ln) (30 °C) | self-splicing fitness (ln) (37 °C)
CUCUAGCAAUAUUACGGGAA | -2.54 ± 0.14 | -1.11 ± 0.11
CUACAGCAAUAUUACGGAAU | -4.13 ± 0.32 | -3.3 ± 0.26
AUCUAGCAAUAUUACGGCCA | -1.06 ± 0.12 | -0.879 ± 0.13
UGUCAGCAAUAUUACGGUAC | -4.07 ± 0.46 | -1.38 ± 0.17
AACAAGCAAUAUUACGUGUA | -1.55 ± 0.046 | -1.01 ± 0.054
UGUAAGCAAUAUUACGUUCA | -0.719 ± 0.1 | -0.118 ± 0.14
AAGUAGCAAUAUUACGCGAA | -2.76 ± 0.23 | -0.182 ± 0.18
UUACAGCAAUAUUACGUAUA | -1.59 ± 0.11 | -0.688 ± 0.14
CUACAGCAAUAUUACGAAAG | -1.42 ± 0.078 | -0.755 ± 0.094
AAUUAGCAAUAUUACGGCGC | -0.632 ± 0.13 | -0.211 ± 0.13
GGCCAGCAAUAUUACGCGCU |  | -1.76 ± 0.39
GCGGAGCAAUAUUACGAGAC | -2.85 ± 0.38 | 
AUACAGCAAUAUUACGGCGC | -0.801 ± 0.1 | 0.447 ± 0.15
UCCCAGCAAUAUUACGUCCA | -1.51 ± 0.12 | -0.587 ± 0.12
UAUAAGCAAUAUUACGUUGU | -4.3 ± 0.2 | -2.55 ± 0.17
CCCGAGCAAUAUUACGCUCG | -3.62 ± 0.22 | -2.92 ± 0.27
CAGUAGCAAUAUUACGUGGU | -2.56 ± 0.13 | -2.54 ± 0.17
AGUUAGCAAUAUUACGAUCU | -0.0546 ± 0.1 | 0.11 ± 0.13
GAUGAGCAAUAUUACGUGCA | -1.14 ± 0.12 | -1.82 ± 0.15
CUCGAGCAAUAUUACGCCGU |  | -1.79 ± 0.26
